Reference: patent US6984657B1, “Indole derivatives as MCP-1 receptor antagonists” (AstraZeneca AB, priority 2000, dated 2006)

Experiments:
MCP-1 receptor B (CCR2B) = target: T1, MCP-1 receptor B (CCR2B) (Homo sapiens, UniProt P41597); assay: hMCP-1 receptor binding assay (125I-MCP-1, CHO-CCR2B cell membranes); conditions: CHO-CCR2B membrane fragments
T1 construct: expressed in transfected cells; host or cells: CHO-K1 clone 7 (CHO-CCR2B), membrane fragments
T1 sequence (P41597 1-360 isoform P41597-2): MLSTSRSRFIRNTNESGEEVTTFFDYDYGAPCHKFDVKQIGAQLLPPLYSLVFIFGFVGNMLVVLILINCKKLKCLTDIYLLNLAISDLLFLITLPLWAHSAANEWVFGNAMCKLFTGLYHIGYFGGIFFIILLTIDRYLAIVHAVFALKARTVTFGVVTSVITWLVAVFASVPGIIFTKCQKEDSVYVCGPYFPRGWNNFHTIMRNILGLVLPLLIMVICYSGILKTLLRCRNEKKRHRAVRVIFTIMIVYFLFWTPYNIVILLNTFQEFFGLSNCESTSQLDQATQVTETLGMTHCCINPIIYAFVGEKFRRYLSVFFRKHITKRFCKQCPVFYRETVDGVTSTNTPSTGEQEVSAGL
Source text: The MCP-1 receptor B (CCR2B) cDNA was cloned by PCR from THP-1 cell RNA using suitable oligonucleotide primers based on the published MCP-1 receptor sequences (Charo et al., 1994, Proc. Natl. Acad. Sci. USA, 91, 2752). The resulting PCR products were cloned into vector PCR-II™ (In Vitrogen, San Diego, Calif.). Error free CCR2B cDNA was subcloned as a Hind III-Not I fragment into the eukaryotic expression vector pCNA3 (In Vitrogen) to generate pCDNA3/CC-CKR2A and pCDNA3/CCR2B respectively.
Linearised pCDNA3/CCR2B DNA was transfected into CHO-K1 cells by calcium phosphate precipitation (Wigler et al., 1979, Cell, 16, 777). Transfected cells were selected by the addition of Geneticin Sulphate (G418, Gibco BRL) at 1 mg/ml, 24 hours after the cells had been transfected. Preparation of RNA and Northern blotting were carried out as described previously (Needham et al., 1995, Prot. Express. Purific., 6, 134). CHO-K1 clone 7 (CHO-CCR2B) was identified as the highest MCP-1 receptor B expresser.
CHO-CCR2B cells were grown in DMEM supplemented with 10% foetal calf serum, 2 mM glutamine, 1× Non-Essential Amino Acids, 1× Hypoxanthine and Thymidine Supplement and Penicillin-Streptomycin (at 50 μg streptomycin/ml, Gibco BRL). Membrane fragments were prepared using cell lysis/differential centrifugation methods as described previously (Siciliano et al., 1990, J. Biol. Chem, 265, 19658). […]

THP-1 cells [1] = assay: hMCP-1 mediated chemotaxis of THP-1 cells; type: cell-based, human; conditions: 2 h at 37° C.
Method: In vitro chemotaxis assays were performed using the human monocytic cell line THP-1. Cell migration through polycarbonate membranes was measured by enumerating those passing through either directly by Coulter counting or indirectly by use of a colourimetric viability assay measuring the cleavage of a tetrazolium salt by the mitochondrial respiratory chain (Scudiero D. A. et al. 1988, Cancer Res., 48, 4827-4833). […]
In an alternative form of the above assay, fluorescently tagged cells can be used in order to assist in end point detection. […] At the end of the incubation, cells are washed off the upper face of the filter with phosphate buffered saline, the filter removed from the plate and the number of cells attracted to either the underside of the filter or the lower well estimated by reading fluorescence at 485 nm excitation, 538 nm emission wavelengths (fmax, Molecular Devices). The data was input into a spreadsheet, corrected for any random migration in the absence of chemoattractant and the average fluorescence values, standard error of the mean, percentage inhibition and IC50 of compounds under test and significance tests can be calculated. […]

THP-1 cells [2] = assay: MCP-1 mediated calcium flux in THP-1 cells; type: cell-based, human; conditions: stimulation of THP-1 cells with hMCP-1, FURA-2, approximate; read-out: EC50 of the rise in [Ca2+]i
Method: The human monocytic cell line THP-1 was grown in a synthetic cell structure medium RPMI 1640 supplemented with 10% foetal calf serum, 6 mM glutamine and Penicillin-Streptomycin (at 50 μg streptomycin/ml, Gibco BRL). THP-1 cells were washed in HBSS (lacking Ca^2+ and Mg^2+)+1 mg/ml BSA and resuspended in the same buffer at a density of 3×10^6 cells/ml. The cells were then loaded with […] FURA-2/AM for 30 min at 37° C., washed twice in HBSS, and resuspended at 1×10^6 cells/ml. THP-1 cell suspension (0.9 ml) was added to a 5 ml disposable cuvette containing a magnetic stirrer bar and 2.1 ml of prewarmed (37° C.) HBSS containing 1 mg/ml BSA, 1 mM MgCl2 and 2 mM CaCl2. The cuvette was placed in a fluorescence spectrophotometer (Perkin Elmer, Norwalk, Conn.) and preincubated for 4 min at 37° C. with stirring. Fluorescence was recorded over 70 sec and cells were stimulated by addition of hMCP-1 to the cuvette after 10 sec. [Ca^2+]i was measured by excitation at 340 nm and 380 nm alternatively and subsequent measurement of the intensity of the fluorescence emission at 510 nm. […] Rmax is the maximal fluorescence ratio determined after addition of […] Ionomycin, Rmin is the minimal ratio determined by the subsequent addition of a Ca^2+ free solution containing 5 mM EGTA, and Sf2/Sb2 is the ratio of fluorescence value at 380 nm excitation determined at Rmin and Rmax, respectively. […]

- IC50 (MCP-1 receptor B (CCR2B); cold competition of unlabeled MCP-1 with 100 pM 125I-labeled MCP-1): 110 pM
- Kd (MCP-1 receptor B (CCR2B); equilibrium binding, room temperature): 120 pM
- EC50 (THP-1 cells [2]): ~2000 pM
Substance: MCP-1: Human Monocyte Chemoattractant Protein-1, a C—C chemokine; ligand of the CCR2 receptor
- concentration of maximal cell migration (biphasic response) (THP-1 cells [1]): 0.5-1.0 nm
